We go through five molecules from US20250027071A1.

Like-named read-outs stand apart in the source and are kept apart here.

Data set [1] concerns TGFBIp G623R peptide (23-amino acid peptide from the 4th FAS1 domain of TGFBIp with the substitution G623R).
Data set [2] relates to Aβ (1-40) peptide.
In data set [3] the target is TGFBIp G623R peptide (23-amino acid peptide from the 4th FAS1 domain of TGFBIp with the substitution G623R). Briefly: cell-based or functional assay.
Data set [4] concerns Tau peptide VK26.
Data set [5] deals with Aβ (1-40) peptide. Briefly: cell-based or functional assay.
The target of data set [6] is TGFBIp G623R peptide (23-amino acid peptide from the 4th FAS1 domain of TGFBIp with the substitution G623R). Briefly: cell-based or functional assay. The source holds these as a separate data set.

As for “C65A L-PGDS (C65A single mutant of truncated L-PGDS)”, in data set [1], the “ThT fluorescence relative to untreated G623R fibrils after 48 h (disaggregation assay, 10 µM L-PGDS : 50 µM fibrils)” value is given as 70.56%±8.18% (SD). Further, the “ThT disaggregation assay of mature Aβ (1-40) fibrils, 24 h” value (from here on “ThT disaggregation assay of mature Aβ”) in data set [2] is reported as “significant (p<0.05) retention of disaggregation activity across all L-PGDS mutants after 24 h of incubation”.

In the case of “C65A L-PGDS (C65A single mutant of truncated L-PGDS) (enzyme)”, in data set [3], the ThT fluorescence intensity relative to the G623R control after 48 h (fibrillation inhibition assay, 10 µM L-PGDS : 50 µM monomeric peptide) is 102%.

Take “RA L-PGDS (K58R+C65A double mutant of truncated L-PGDS)”: in data set [1], the “ThT fluorescence relative to untreated G623R fibrils after 48 h (disaggregation assay, 10 µM L-PGDS : 50 µM fibrils)” value is reported as 72.78%±20.42% (SD) and the “fibril length from TEM micrographs after disaggregation treatment” value is “RA-L-PGDS treatment did indeed produce shorter fibrils as opposed to WT L-PGDS”. Moreover, the “ThT assay of Tau VK26 aggregation (100 µM peptide with 5 µM or 10 µM RA L-PGDS)” value in data set [4] is “RA L-PGDS almost completely inhibited the aggregation of the Tau protein”. Moreover, the “ThT disaggregation assay of mature Aβ” value in data set [2] is “significant (p<0.05) retention of disaggregation activity across all L-PGDS mutants after 24 h of incubation”.

With “RA L-PGDS (K58R+C65A double mutant of truncated L-PGDS) (enzyme)”, the ThT fluorescence intensity relative to the G623R control after 48 h (fibrillation inhibition assay, 10 µM L-PGDS : 50 µM monomeric peptide) in data set [3] is 51.4%. This molecule also showed a ThT fluorescence relative to Aβ (1-40) control (inhibitory assay, 24 h) in data set [5] of 96.1%.

B1: truncated human wild-type Lipocalin-type prostaglandin D synthase (L-PGDS) (enzyme, UniProt P41222 23-190, looked up)
Prostaglandin-H2 D-isomerase: APEAQVSVQPNFQQDKFLGRWFSAGLASNSSWLREKKAALSMCKSVVAPATDGGLNLTSTFLRKNQCETRTMLLQPAGSLGSYSYRSPHWGSTYSVSVVETDYDQYALLYSQGSKGPGEDFRMATLYSRTQTPRAELKEKFTAFCKAQGFTEDTIVFLPQTDKCMTEQ
modifications: C-terminal His6 tag
For the molecule B1, the “ThT fluorescence relative to untreated G623R fibrils after 48 h (disaggregation assay, 10 µM L-PGDS : 50 µM fibrils)” value in data set [1] is on record as 68.78%±18.20% (SD). The “ThT disaggregation assay of mature Aβ” value in data set [2] is given as “significant (p<0.05) retention of disaggregation activity across all L-PGDS mutants after 24 h of incubation”. The ThT fluorescence intensity relative to the G623R control after 48 h (fibrillation inhibition assay, 10 µM L-PGDS : 50 µM monomeric peptide) in data set [6] stood at 52.5%.
